We go through three molecules from PMC6345502, “Vancomycin does not affect the enzymatic activities of purified VanSA” (PLoS ONE, 2019).

T1: cytosolic domain of VanSA (enterococci, UniProt Q06240 98-384)
T1 construct: two residues at the N-terminus contributed by the vector pETCH; VanS of type-A vancomycin resistance in enterococci, Uniprot Q06240, residues 98-384, beginning at K98 just after the second predicted transmembrane helix; also called cVanSA; Cytosolic VanSA; source: E. coli BL21(DE3), purified (IMAC, HiTrap Q, S-300)
T1 sequence: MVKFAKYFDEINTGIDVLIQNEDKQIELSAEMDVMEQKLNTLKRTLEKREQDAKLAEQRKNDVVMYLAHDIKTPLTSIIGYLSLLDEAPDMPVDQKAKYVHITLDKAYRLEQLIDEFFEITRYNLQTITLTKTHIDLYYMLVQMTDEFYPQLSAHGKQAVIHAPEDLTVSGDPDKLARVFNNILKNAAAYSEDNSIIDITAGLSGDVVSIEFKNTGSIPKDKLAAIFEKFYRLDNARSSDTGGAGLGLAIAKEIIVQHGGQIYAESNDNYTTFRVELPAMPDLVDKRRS

T2: Phospho-cytosolic VanSA (enterococci, UniProt Q06240 98-384, phospho-histidine at the conserved histidine (autophosphorylated; not expected to be fully phosphorylated))
T2 construct: two residues at the N-terminus contributed by the vector pETCH; VanS of type-A vancomycin resistance in enterococci, Uniprot Q06240, residues 98-384, beginning at K98; also called autophosphorylated cVanSA; phospho-cVanSA
T2 sequence: T1 sequence

B1: 1D4-tagged VanRA (natural protein)
chain: MSDKILIVDDEHEIADLVELYLKNENYTVFKYYTAKEALECIDKSEIDLAILDIMLPGTSGLTICQKIRDKHTYPIIMLTGKDTEVDKITGLTIGADDYITKPFRPLELIARVKAQLRRYKKFSGVKEQNENVIVHSGLVINVNTHECYLNEKQLSLTPTEFSILRILCENKGNVVSSELLFHEIWGDEYFSKSNNTITVHIRHLREKMNDTIDNPKYIKTVWGVGYKIEK
notes: VanR response regulator of type-A vancomycin resistance in enterococci, Uniprot Q06239; the 1D4 tag and linker add 13 residues to the wild-type VanRA construct; Expression and purification of this tagged construct are not described; also called tagged VanRA construct; immobilized VanRA
B2: fluorescently-labeled VanRA (natural protein, enterococci)
chain: CMSDKILIVDDEHEIADLVELYLKNENYTVFKYYTAKEALECIDKSEIDLAILDIMLPGTSGLTICQKIRDKHTYPIIMLTGKDTEVDKITGLTIGADDYITKPFRPLELIARVKAQLRRYKKFSGVKEQNENVIVHSGLVINVNTHECYLNEKQLSLTPTEFSILRILCENKGNVVSSELLFHEIWGDEYFSKSNNTITVHIRHLREKMNDTIDNPKYIKTVWGVGYKIEK
modifications: fluorescein maleimide on the cysteine introduced at the N-terminus
notes: additional cysteine at the N-terminus, introduced by site-directed mutagenesis instead of the glycine of the wild-type construct; VanR response regulator of type-A vancomycin resistance in enterococci, Uniprot Q06239; Expression and purification of the cysteine mutant are not described; After labelling it was passed over Sephacryl S-100 HR; also called fluorescein-labeled VanRA; …
B3: full-length VanSA (enzyme)
chain: MVIKLKNKKNDYSKLERKLYMYIVAIVVVAIVFVLYIRSMIRGKLGDWILSILENKYDLNHLDAMKLYQYSIRNNIDIFIYVAIVISILILCRVMLSKFAKYFDEINTGIDVLIQNEDKQIELSAEMDVMEQKLNTLKRTLEKREQDAKLAEQRKNDVVMYLAHDIKTPLTSIIGYLSLLDEAPDMPVDQKAKYVHITLDKAYRLEQLIDEFFEITRYNLQTITLTKTHIDLYYMLVQMTDEFYPQLSAHGKQAVIHAPEDLTVSGDPDKLARVFNNILKNAAAYSEDNSIIDITAGLSGDVVSIEFKNTGSIPKDKLAAIFEKFYRLDNARSSDTGGAGLGLAIAKEIIVQHGGQIYAESNDNYTTFRVELPAMPDLVDKRRS
notes: VanS sensor histidine kinase of type-A vancomycin resistance in enterococci, Uniprot Q06240, full length; the construct has 392 amino acids including the C-terminal PG-6xHis tag; Membrane protein; kept in 10 mM LDAO for SEC and storage and in 9 mM C12E8 for the SPR injections; source: E. coli BL21(DE3), purified from the membrane fraction (DDM extraction, IMAC, Sephacryl S-300 in LDAO)

The series “full-length VanSA” has as its target B3. In words: SPR; 1D4-tagged VanRA captured on Rho1D4 antibody on a GLC chip; full-length VanSA as analyte in running buffer + 9 mM C12E8; 25°C; 50 mM BIS-TRIS pH 6.0, 150 mM NaCl, 10 mM MgCl2, 0.005% Tween 20; one-site model fitted to equilibrium responses; concentrations for dimers. The note with it: both partners purified.
For series [1], the target named is T1, cytosolic domain of VanSA. In words: SPR; 1D4-tagged VanRA captured on Rho1D4 antibody amine-coupled to a GLC chip (ProteOn XPR36); cytosolic histidine kinase as analyte; 25°C; 50 mM BIS-TRIS pH 6.0, 150 mM NaCl, 10 mM MgCl2, 0.005% Tween 20; one-site model fitted to equilibrium responses; concentrations for dimers. The note with it: both partners purified. A general note: In SPR one partner is held on a chip, and binding of the other changes the refractive index at the surface.

In another series the target is T2, Phospho-cytosolic VanSA. The description is as above. To be noted: both partners purified.
Series [2] concerns the target T1, cytosolic domain of VanSA. The series is described as follows: fluorescence polarisation; fluorescence anisotropy; cVanSA titrated into 40 nM fluorescein-labeled VanRA; 50 mM Tris pH 7.8, 100 mM NaCl, 5 mM MgCl2, 0.05% Tween-20; room temperature. The note with it: both partners purified. In general terms: In fluorescence polarisation assays a small probe gives low polarisation when free and higher when bound to something large.

Series [3] concerns the molecule itself. In words: SEC; Sephacryl S-300 in 50 mM Tris pH 7.8, 500 mM NaCl, 5 mM MgCl2, 10 mM LDAO; elution compared with the 80 kDa apotransferrin standard. For orientation: In gel filtration, larger molecules generally elute earlier.

Several values for one entry are separate records, joined by “and”; a condition that tells them apart may be missing. Identical values can stand only once.

B1: the Kd – broadly, the constant that tells how readily two partners part at equilibrium – with full-length VanSA is 1.9 ± 0.7 µM; in series [1], 6.8 ± 1.4 µM; with Phospho-cytosolic VanSA, 2.5 ± 0.8 µM. As to B2, the Kd in series [2] was 0.2 µM and 0.1 to 1 µM. For B3, the binding result in series [3] was “binds”.
